Test results published in publication PMC7111720.
Where two headings read alike, the source gives them in different places.

Assays:
[1] = molecular target: T1, p22 (Tomato chlorosis virus (isolate AT80/99), UniProt Q001T4 1-193); assay: EMSA
T1 sequence: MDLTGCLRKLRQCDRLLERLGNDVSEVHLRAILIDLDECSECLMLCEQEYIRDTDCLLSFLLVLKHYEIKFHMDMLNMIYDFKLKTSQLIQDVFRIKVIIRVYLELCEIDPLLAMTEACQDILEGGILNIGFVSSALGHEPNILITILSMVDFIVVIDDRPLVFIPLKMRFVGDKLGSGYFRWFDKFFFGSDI

[2] = molecular target: T1, p22; assay: EMSA; remark: listed apart in the source

B1: 21 nt small dsRNA, free 3' OH (dsRNA)
RNA 1: ACUGGAGUUGUCCCAAUUCUU
RNA 2: GAAUUGGGACAACUCCAGUGA
Question: Does B1 bind [1]?
Answer: no binding

B2: 21 nt small dsRNA, DIG (dsRNA)
RNA 1: ACUGGAGUUGUCCCAAUUCUU
RNA 2: GAAUUGGGACAACUCCAGUGA
modifications: 3'-DIG on antisense strand
Question: Does B2 bind [2]?
Answer: no binding
